1 substance from paper PMC9583076 can be followed below.

The target in the assay is Individual alanine mutations of these three residues (HTR2B S455, S456 and S457). Nature of the assay: FRET or BRET. In general terms: In BRET a luciferase serves as donor, and the signal depends on an acceptor being close.

Chain of N-terminal Venus-tagged β-arrestin-1 (P49407 whole entry): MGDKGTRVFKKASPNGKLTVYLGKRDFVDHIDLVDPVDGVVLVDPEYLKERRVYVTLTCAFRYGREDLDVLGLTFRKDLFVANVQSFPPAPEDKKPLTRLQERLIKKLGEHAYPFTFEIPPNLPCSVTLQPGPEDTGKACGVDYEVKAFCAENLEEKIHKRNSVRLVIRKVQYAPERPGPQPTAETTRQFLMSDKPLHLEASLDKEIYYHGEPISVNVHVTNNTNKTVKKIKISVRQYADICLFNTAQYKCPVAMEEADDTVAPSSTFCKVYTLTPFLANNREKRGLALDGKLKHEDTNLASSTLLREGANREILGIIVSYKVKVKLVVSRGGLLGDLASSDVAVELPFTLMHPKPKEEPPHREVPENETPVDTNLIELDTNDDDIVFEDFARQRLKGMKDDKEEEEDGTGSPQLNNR

Regarding “N-terminal Venus-tagged β-arrestin-1 (from UniProt P49407 1-418) (natural protein)”, the reduction of Emax of β-arrestin-1 recruitment against WT fell in the range of 30 to 50%.
